Earlier results in patent publication US20090023631A1, “Composition and Method of Use for Soft Tissue Augmentation/Drug Delivery” (priority 2007, published 2009).

Tested on: stage III and IV ulcers
Settings: multiple studies

B1: recombinant human PDGF-BB: platelet-derived growth factor, commercial product available as recombinant human PDGF-BB (protein, UniProt P01127 82-190, looked up)
Platelet-derived growth …: SLGSLTIAEPAMIAECKTRTEVFEISRRLIDRTNANFLVWPPCVEVQRCSGCCNNRNVQCRPTQVQLRPVQVRKIEIVRKKPIFKKATVTLEDHLACKCETVAAARPVT
modifications: BB homodimer
In the case of B1, the healing time is given as “reduce healing time” and the “incidence of complete wound healing” value is given as “improve the incidence of complete wound healing”.
